Data published in article PMC11162469, “Discovery of RXFP2 genetic association in resistant hypertensive men and RXFP2 antagonists for the treatment of resistant hypertension” (Scientific Reports, 2024).

Experiments:
rat RXFP2 = rat RXFP2 (Rattus norvegicus, UniProt F7EMH8); test: INSL3-stimulated cAMP assay in HEK293 stably expressing rat RXFP2; settings: INSL3 EC80-stimulated cAMP, stable expression, N = 2;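 further: cAMP measured with an HitHunter kit in 384-well plates, 11-point dose–response curves up to 1 µM antibody, four-parameter variable-slope fit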
Experimental: (§1) RXFP activity assays were developed in HEK293 with stable expression of RXFP2 or RXFP1.
(§2) The same approach was used to generate stable HEK293 lines expressing human and rat RXFP1 and RXFP2 cDNA. The cAMP assay was conducted using the Eurofin Hithunter kit per manufacturer’s instructions in a 384-well format. All dose curve fitting and EC50 and IC50 determinations were performed in Prism (v9.3.0) using the non-linear fit, variable slope (four parameter) function.

[1] = target: T1, human LDLa peptide (UnitProt Q8WXD0 43-80) (Homo sapiens, UniProt Q8WXD0); test: ELISA binding to linker-less human LDLa peptide
T1 construct: human LDLa peptide (Q8WXD0 43-80)
Experimental: The human/rat RXFP2 cross reactive antibodies belong to two epitope bins and were further evaluated for binding to the linker-less human LDLa peptide (UnitProt Q8WXD0 43-80) by ELISA. […] The different domain requirements for binding are consistent with results from the binning experiment showing 4F6 and 4G6 are in a separate bin from 4B1.
Rat LDLa-linker_ratFc, human LDLa-linker_ratFc, or ratFc, or human LDLa peptide (Q8WXD0 43-80) was diluted to 1 µg/mL in 1X PBS and immobilized in separate 96-well ELISA plates (Nunc Maxisorp), 50 µL/well. The plates were then incubated overnight at 4 °C. The following day the plates were washed three times with ELISA wash buffer (PBS + 0.05% Tween-20) and then blocked with ELISA blocking buffer (PBS + 0.05% Tween-20 + 1% BSA), 200 µL/well, and incubated 1 h at room temperature on a shaker. Plates were again washed three times followed by the addition of the primary antibodies. Hybridoma supernatant was added neat, 50 µL/well; mouse serum was added 1:100 and then serially diluted 1:2 for 8 points, 50 µL/well. Purified antibodies were added 5 µg/mL in the first well and serially diluted down the plate 1:2 for 8 points, 50 µL/well. Primary antibody was incubated for 1 h at room temperature on a shaker. […] Stopping solution (2N Sulfuric acid) was added to the plates 50 µL/well, and then read on a plate reader (SpectraMax Molecular Devices) at 450 nm.

human RXFP2 = human RXFP2 (Homo sapiens, UniProt Q8WXD0); test: INSL3-stimulated cAMP assay in HEK293 stably expressing human RXFP2
Experimental: as §1, §2

human LDLa-linker = target: T2, human LDLa-linker (Homo sapiens, UniProt Q8WXD0); test: Biacore S200 binding to human LDLa-linker protein
T2 construct: human LDLa linker [huRXFP2-LDLa-linker(38-105)-ratFc-8XHIS]; enterokinase cleavage site (C); rat Fc (C, cleaved yes); 8xHis (C, cleaved yes); made in house; host or cells: Expi293
Experimental: Goat anti Rat Fc gamma fragment specific (Jackson Immunoresearch, 112-005-071) was immobilized at 30 µg/mL to a Series S CM5 chip (Cytiva Life Sciences). In three separate runs, twenty different purified recombinant rat anti RXFP2 antibodies were then captured to the CM5 chip at a concentration of 5 µg/mL. The antibody panel was captured; rat LDLa-linker or human LDLa-linker protein was flowed as analyte at the following concentrations: 20 nM, 10 nM, 5 nM, 2.5 nM, […], and 0 nM. Antibody kinetics were evaluated using a 1:1 fit model (Biacore S200).

[2] = Pharmacokinetic study of RXFP2 mAbs in rat; type: in vivo, Wistar Han rats
Experimental: For the pharmacokinetic study of RXFP2 mAbs in rat, 1G1, 2D4, 4B1, 4G6, 1F2, and 3F3 were prepared in phosphate buffered saline (0.100 mg/mL) with low endotoxin (≤ 0.76 EU/mL). Adult male Wistar Han rats (n = 3/mAb) were administered 1 mg/kg subcutaneously (10 mL/kg). Blood samples (100 µL) were collected in EDTA containing tubes at 0.25, 3, 6 24, 48, 96, 168 (day 7), 336 (day 14), 504 (day 21), and 672 (day 28) hours post dose, immediately centrifuged (6100 rpm), and 50 µL plasma stored at − 80 °C until assay. Rats maintained health throughout the study and were anesthetized (isoflurane to effect) and euthanized on day 28.
Frozen rat plasma samples were thawed and analyzed using a qualified analytical method based on sample dilution, followed by Electrochemiluminescence immunoassay analysis. The lower limit of quantification (LLQ) was 0.1 µg/mL using a 10 µL aliquot of 51-fold diluted rat plasma with a higher limit of quantification (HLQ) of 10 µg/mL. RXFP2 mAbs were captured with LDLa protein and detected with sulfo-tag labeled mouse anti-rat IgG2b. The computer systems that were used to acquire and quantify data included Gyrolab Workstation Version 8.1.5 and Watson LIMS version 7.6.1. Rat pharmacokinetic parameters were calculated by non-compartmental analysis (NCA) analysis using WinNonlin Phoenix 64 (version 8.3). Values are reported in mean ± standard deviation.

[3] = male Wistar Han rats, 1 mg/kg s.c., n = 3, mean ± SD

Chain of human RXFP2 (Q8WXD0 whole entry): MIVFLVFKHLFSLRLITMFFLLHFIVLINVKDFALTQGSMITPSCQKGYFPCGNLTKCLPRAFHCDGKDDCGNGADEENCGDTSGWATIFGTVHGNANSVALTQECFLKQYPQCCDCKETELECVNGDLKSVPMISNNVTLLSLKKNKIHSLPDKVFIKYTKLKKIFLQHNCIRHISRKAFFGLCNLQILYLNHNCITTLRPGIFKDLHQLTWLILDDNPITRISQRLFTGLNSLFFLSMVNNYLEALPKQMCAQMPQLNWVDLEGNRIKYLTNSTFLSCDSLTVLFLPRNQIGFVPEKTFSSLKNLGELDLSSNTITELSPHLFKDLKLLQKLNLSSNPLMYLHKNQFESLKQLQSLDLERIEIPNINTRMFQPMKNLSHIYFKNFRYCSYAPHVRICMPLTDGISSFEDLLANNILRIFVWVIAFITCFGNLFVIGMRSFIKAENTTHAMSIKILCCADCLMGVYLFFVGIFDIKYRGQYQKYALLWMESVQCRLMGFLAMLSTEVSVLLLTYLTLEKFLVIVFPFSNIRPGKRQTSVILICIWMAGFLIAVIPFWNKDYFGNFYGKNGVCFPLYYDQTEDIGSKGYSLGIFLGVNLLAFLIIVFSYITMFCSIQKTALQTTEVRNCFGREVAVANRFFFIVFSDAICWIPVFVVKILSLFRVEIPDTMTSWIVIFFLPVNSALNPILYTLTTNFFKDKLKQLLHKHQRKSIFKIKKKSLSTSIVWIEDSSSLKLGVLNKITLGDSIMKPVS
Chain of rat RXFP2 (F7EMH8 20-737): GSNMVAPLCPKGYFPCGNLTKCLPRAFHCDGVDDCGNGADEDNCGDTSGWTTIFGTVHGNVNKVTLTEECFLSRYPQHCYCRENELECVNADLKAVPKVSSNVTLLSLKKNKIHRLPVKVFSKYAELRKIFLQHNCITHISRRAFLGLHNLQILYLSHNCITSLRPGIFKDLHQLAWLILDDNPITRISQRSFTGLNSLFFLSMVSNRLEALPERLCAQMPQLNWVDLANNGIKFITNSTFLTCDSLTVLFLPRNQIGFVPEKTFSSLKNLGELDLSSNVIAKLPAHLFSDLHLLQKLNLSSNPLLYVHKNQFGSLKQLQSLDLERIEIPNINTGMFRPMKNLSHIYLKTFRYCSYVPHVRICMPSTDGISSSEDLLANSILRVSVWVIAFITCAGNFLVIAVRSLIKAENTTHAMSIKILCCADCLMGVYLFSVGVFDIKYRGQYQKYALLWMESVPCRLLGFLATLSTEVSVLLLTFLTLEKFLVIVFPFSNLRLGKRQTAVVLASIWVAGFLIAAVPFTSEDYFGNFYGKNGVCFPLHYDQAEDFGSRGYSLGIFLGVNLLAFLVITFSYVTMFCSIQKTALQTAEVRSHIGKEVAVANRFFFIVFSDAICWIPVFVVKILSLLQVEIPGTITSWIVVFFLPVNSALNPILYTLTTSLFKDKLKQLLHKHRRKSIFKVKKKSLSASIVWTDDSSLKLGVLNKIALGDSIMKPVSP
T2 sequence (Q8WXD0 38-105): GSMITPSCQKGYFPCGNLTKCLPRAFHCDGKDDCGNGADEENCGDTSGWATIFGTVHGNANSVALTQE
T1 sequence (Q8WXD0 43-80 limits assumed): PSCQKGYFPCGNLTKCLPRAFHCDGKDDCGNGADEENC

B1: 4G6: Human/rat cross-reactive RXFP2 monoclonal antibody, rat IgG2b backbone; binds the LDLa domain (antibody, V domains shown)
VH: EVQLQQSGPELVKPGASVKLSCKASGYTFTSYVMHWVKQKPEQGLEWIGYKNPSNDGIKYNEKFKGKATLTSDKSSNIAYMELFSLTSEDSAVYYCARSDFGSVWAMDYWGQGTSVTVSS
VL: SIVMTQTPKFLLVSAGDRVTITCKASQSVNDDIVWYQQKPGQSPKLLIYYASNRYTGVPDRFTGSGYGTDFTFTISTVQAGDLAVYFCQQDYSSPFTFGSGTKLEIK
HEK293-rat RXFP2 cAMP % Max Response (rat RXFP2): 82.5% | IC50 (rat RXFP2; read-out: HEK293-rat RXFP2 cAMP IC50): 14.1 nM | binding to linker-less human LDLa peptide [1]: bind | blockade of hRXFP2 (human RXFP2; INSL3-stimulated cAMP, HEK293-hRXFP2): strong blockade | HEK293-human RXFP2 cAMP % Max Response (human RXFP2; INSL3 EC80-stimulated cAMP, stable expression, N = 2): 84.5% | IC50 (human RXFP2; read-out: HEK293-human RXFP2 cAMP IC50, INSL3 EC80-stimulated cAMP, stable expression, N = 2): 15.6 nM | cross reactivity to the human LDLa-linker (human LDLa-linker): cross reactivity | half-life, extrapolated values ([2]; Wistar Han rats, 1 mg/kg sc., over 28 days): ≥ 11 days | estimated dose to achieve tenfold higher IC50 HEK-rRXFP2 cAMP activity for approximately 28 days in rat ([2]; from trough concentration, dose-linearity assumed): approximately 30 mg/kg | AUClast [2, 3]: 1350 ± 125 µg·h/mL | Cmax [2, 3]: 4150 ± 1200 ng/mL | Tmax [2, 3]: 9.33 ± 4.04 days
